The labels stand for the following.
B1: Cyanovirin-N, P81180 (parent)
chain: LGKFSQTCYNSAIQGSVLTSTCERTNGGYNTSSIDLNSVIENVDGSLKWQPSNFIETCRNTQLAGSSELAAECKTRAQQFVSTKINLDDHIANIDGTLKYE

In the data set the parent is B1. To be noted: Nostoc ellipsosporum, pH 6, sodium phosphate 20 mM, transition: 2, reversible: yes(90%), structure 1IIY, whole UniProt chain shown; for denaturant m value / denaturant midpoint (higher = more stable): 25 °C, GdnHCl; for Tm / change of melting temperature, mutant - wild type (higher = more stable): Thermal.

This note sets out measurements from FireProtDB (doi:10.1021/bi201411c).

By Tm is commonly meant the temperature at the midpoint of the melting transition.

With LGKFSQTCYNAAIQGSVLTATCERTNGGYNTSSIDLNSVIENVDGSLKWQGSNFIETCRNIQLAGSSELAAECKTRAQQFVSTKINLDDHIANIDGTLKYE, where the note is “CD”, the denaturant m value was found to be 1.7 kcal/mol/M; the “denaturant midpoint (higher = more stable)” value (shortened to “denaturant midpoint”) was 3.3 M; the Tm is 75.8 °C; the “change of melting temperature, mutant - wild type (higher = more stable)” value (shortened to “change of melting temperature, mutant”) came to 9.2 °C. Besides, for the setting “fluorescence”, the denaturant m value amounted to 2.1 kcal/mol/M and the “denaturant midpoint” value was 3.5 M.
LGKFSQTCYNVAIQGSVLTATCERTNGGYNTSSIDLNSVIENVDGSLKWQGSNFIETCRNTQLAGSSELAAECKTRAQQFVSTKINLDDHIANIDGTLKYE: for the setting “CD”, the denaturant m value is 2.6 kcal/mol/M; the “denaturant midpoint” value turned out to be 2.8 M; the Tm worked out at 69.8 °C; the “change of melting temperature, mutant” value is 3.2 °C. Moreover, for the setting “fluorescence”, the denaturant m value came to 2.6 kcal/mol/M and the “denaturant midpoint” value was 2.8 M.
In the case of LGKFSQTCYNSAIQGSVLTSTCERTNGGYNTSSIDLNSVIENVDGSLKWQGSNFIETCRNTQLAGSSELAAECKTRAQQFVSTKINLDDHIANIDGTLKYE, where the note is “CD”, the denaturant m value was determined as 2.5 kcal/mol/M; the “denaturant midpoint” value is 2.2 M; the Tm stood at 64.3 °C; the “change of melting temperature, mutant” value is -2.3 °C. Further, under “fluorescence”, the denaturant m value amounted to 2.6 kcal/mol/M and the “denaturant midpoint” value worked out at 2.3 M.
On to LGKFSQTCYNAAIQGSVLTATCERTNGGYNTSSIDLNSVIENVDGSLKWQGSNFIETCRNTQLAGSSELAAECKTRAQQFVSTKINLDDHIANIDGTLKYE, for which, where the note is “CD”, the denaturant m value worked out at 2.4 kcal/mol/M; the “denaturant midpoint” value stood at 2.5 M; the Tm is 69.6 °C; the “change of melting temperature, mutant” value came out at 3 °C.
For the variant LGKFSQTCYNVAIQGSVLTATCERTNGGYNTSSIDLNSVIENVDGSLKWQGSNFIETCRNVQLAGSSELAAECKTRAQQFVSTKINLDDHIANIDGTLKYE, where the note is “CD”, the denaturant m value is 1.7 kcal/mol/M; the “denaturant midpoint” value turned out to be 2.9 M; the Tm was 74.5 °C; the “change of melting temperature, mutant” value came to 7.9 °C. In addition, under “fluorescence”, the denaturant m value turned out to be 2.1 kcal/mol/M and the “denaturant midpoint” value stood at 3 M.
LGKFSQTCYNIAIQGSVLTATCERTNGGYNTSSIDLNSVIENVDGSLKWQGSNFIETCRNTQLAGSSELAAECKTRAQQFVSTKINLDDHIANIDGTLKYE: where the note is “CD”, the denaturant m value came to 2 kcal/mol/M and the “denaturant midpoint” value was found to be 3.1 M.
